Measured values from patent US20050026833A1, “PSP-94: use for treatment of hypercalcemia and bone metastasis” (priority 2001, published 2005).
Entries after “also recorded” stand apart in the source; their conditions may differ.

What was measured:
[1] = tested on: PTHrP; experiment: PTHrP immunohistochemistry of skeletal metastasis (vertebrae); assay type: in vivo, male Copenhagen rats; conditions: 100.0 ug/kg PCK3145, day 10, vs vehicle
Description: For example, vertebral columns were fixed and decalcified for a period of 3 weeks. Vertebral column samples were dewaxed in xylene, and rehydrated through a graded alcohol series (100%-70%). For determining the level of expression of PTHrP by skeletal metastasis, the sections were incubated in 1% normal goat serum (Vector Laboratories Inc., Burlingame, Calif., USA) for 30 min at room temperature before treatment with the primary antibody (polyclonal antiserum against PTHrP (1-34) from rabbit) at 1: 200 dilution overnight at 4° C. Biotinylated goat anti-rabbit IgG (Vector Laboratories Inc., Burlingame, Calif., USA) was used as the secondary antibody at 1:200 for 30 min at room temperature. […]
Computer-Assisted Image Analysis. Computer-assisted image analysis was carried out to quantify PTHrP immunostaining and determination of % TV/BV in the vertebral sections. […] The threshold was set by determining the positive staining of control sections and was used to automatically analyze all recorded images of all samples that were stained in the same session under identical conditions. The area of stained regions was calculated automatically by the software in each microscopic field. Pixel counts of the immunoreaction product were calculated automatically and were given as total density of the integrated immunostaining over a given area. […]

[2] = Animal weight and side-effect monitoring in tumor-bearing rats; conditions: for cytotoxic effects: overall conclusion of the study
Description: Also, alternatively, cell pellets (5×10^5 cells) were resuspended in 100 ul saline and injected using 1 ml syringes into the right flank of rats as described herein. From the time of tumor cell inoculation, experimental animals were treated with different doses (0.1, 1.0, 10.0, or 100.0 ug/kg/day) of PSP-94 or PCK3145 (SEQ ID NO.:5) via S.C. injections for 15 consecutive days. Control animals received PBS alone as vehicle control. All animals were numbered, kept separately and monitored daily for the development of tumors. […] All control and experimental animals were weighed every alternate day to determine any adverse effect of PSP-94 or PCK3145. Both control and experimental animals were sacrificed at day 16 post tumor cell inoculation and their tumors were removed and weighed.
During the study, both control and experimental animals were monitored for any noticeable side effects and cachexia resulting in weight loss. […] Starting on the time of tumor cell inoculation animals were infused with different doses of PSP-94 for fifteen consecutive days as described herein. All animals were weighed at timed intervals and comparison was made with that of tumor bearing animals receiving vehicle alone as control (CTL).
Male Copenhagen rats were inoculated with 1×10^6 Mat Ly Lu-PTHrP cells via S.C. route of injection into the right flank. Animals were infused daily via S.C. route, below the site of tumor cell inoculation, with different doses (1.0-100.0 ug/kg/day) of PCK3145 starting from the day of tumor cell inoculation and lasting for 15 days. […] Animals were also weighed to determine any side effects of administering PCK3145. […] In order to determine the effect of PCK3145 on tumor weight, control animals and experimental animals receiving PCK3145 were sacrificed at the end of the study (day 16) and their tumors excised and weighed.

[3] = tested on: Mat Ly Lu-PTHrP skeletal metastasis; experiment: I.C. inoculation skeletal metastasis model, hind limb paralysis; assay type: in vivo, male Copenhagen rats
Description: Animal Protocols. Inbred male Copenhagen rats weighing 200-250g were obtained from Harlan Sprague-Dawley (Indianapolis, Ind.). Before inoculation, Mat Ly Lu-PTHrP tumor cells growing in serum-containing medium were washed with Hanks buffer, trypsinized, and collected by centrifugation at 1500 rpm for 5 min. […] Animals were divided into control groups which received vehicle alone (PBS: phosphate buffered saline) and experimental groups which were infused I.P. with different doses (0.1-10.0 ug/kg/day) of PSP-94 starting at the time of tumor cell inoculation (day 0) until the day of skeletal metastasis development. The time after tumor cell inoculation which was required to develop hind limb paralysis (an index of spinal cord compression due to lumbar vertebrae metastasis) was determined and percentage of starting number of animals developing hind-limb paralysis was plotted.
Alternatively, cell pellets (10×10^3 cells) were resuspended in 100ul saline and injected using 1 ml syringes into the left ventricle of rats anaesthetised with ketamine/xylazine cocktail. […] The time after tumor cell inoculation which was required to develop hind limb paralysis (an index of spinal cord compression due to lumbar vertebrae metastasis) was determined and percentage of starting number of animals developing hind-limb paralysis was plotted. In other sets of experiments, following I.C. tumor cell inoculation, control animals receiving PBS and experimental animals receiving 100.0 ug/kg/day of PCK3145 were sacrificed before the development of hind-limb paralysis (day 10 post tumor cell inoculation) and their vertebral column spanning from L1-L5 was removed and subjected to bone histomorphometric and immunohistochemical analysis as described herein.
Thus, male Copenhagen rats were inoculated via I.C. route into the left ventricle with 10×10^3 Mat Ly Lu-PTHrP cells. Starting on the time of tumor cell inoculation (day 0) animals were infused with different doses of PSP-94 (0.1-10.0 ug/kg/day) until the day of development of hind-limb paralysis as described herein. Animals receiving vehicle alone as control (CTL) or PSP-94 were monitored daily for the development of hind-limb paralysis and % animals not paralyzed at different time points in each group was calculated.
Male Copenhagen rats were inoculated with Mat Ly L u-PTHrP cells (10×10^3) into the left ventricle via I.C. injections. Starting on the day of tumor cell inoculation (day 0), experimental animals received different doses of PCK3145 (1.0-100.0 ug/kg/day) via I.P. route. To evaluate the effect of PCK3145 on delaying the development of experimental skeletal metastasis, animals were evaluated daily by monitoring of the animals for the development of hind-limb paralysis. […]

[4] = tested on: Mat Ly Lu-PTHrP cells; experiment: DNA fragmentation in vitro (agarose gel); assay type: cell-based, rat; conditions: PSP-94 10.0 ug/ml, after 72 hours of treatment
Description: In order to investigate the underlying molecular mechanism of action of PSP-94 in reducing tumor growth Mat Ly Lu-PTHrP cells were cultured in the presence of PSP-94 (10.0 ug/ml) or vehicle alone for different time intervals. Genomic DNA was collected from cells cultured in the presence of vehicle alone or PSP-94. Briefly, for DNA fragmentation, Mat Ly Lu-PTHRP cells were plated in 6 well plates (Falcon Plastics, Oxnard, Calif.). Cells were treated with PSP-94 (10.0 ug/ml) for up to 72 hours. DNA from treated cells incubated with PSP-94 and cells treated with vehicle alone was collected using a Phenol:Choloroform:lsoamyl alcohol solution (50:48:2). Equal amounts of DNA were subjected to gel electrophoresis on a 2% agarose gel. DNA fragmentation was visualised by UV light using a transilluminator. More particularly, results presented in FIG. 14A show Mat Ly Lu-PTHrP cells cultured in the presence of vehicle alone or PSP-94 (10.0 ug/ml) for up to […]. DNA was isolated and run in an agarose gel, as described above.

Molecule | PTHrP staining in Mat Ly Lu-PTHrP cells of the vertebral column (total density) [1] | animal weight ([2]; PCK3145 1.0-100.0 ug/kg/day S.C. for 15 days) | cytotoxic effects [2] | number of animals developing hind limb paralysis ([3]; 100.0 ug/kg/day PCK3145 I.P. from day 0, vs vehicle) | time of developing hind limb paralysis ([3]; 1.0 and 10.0 ug/kg/day PCK3145 I.P. (data not shown)) | side effects or weight loss of experimental animals ([2]; different doses of PSP-94, S.C. tumor model) | animal weight ([2]; different doses of PSP-94 for fifteen consecutive days, vs vehicle) | number of animals developing hind limb paralysis (delay in skeletal metastasis) ([3]; 10.0 ug/kg/day PSP-94 from day 0, vs vehicle) | time of hind limb paralysis ([3]; 0.1 and 1.0 ug/kg/day PSP-94 (data not shown)) | DNA fragmentation [4]
E W Q T D N C E T C T C Y E T (EWQTDNCETCTCYET; PCK3145 (polypeptide 31-45)) | significantly lower | No significant difference | without manifesting any noticeable cytotoxic effects | statistically significant delay | no significant effect | – | – | – | – | –
PSP-94: prostate secretory protein of 94 amino acids; native human seminal plasma PSP-94 (protein) SCYFIPNEGVPGDSTRKCMDLKGNKHPINSEWQTDNCETCTCYETEISCCTLVSTPVGYDKDNCQRIFKKEDCKYIVVEKKDPKKTCSVSEWII | – | – | without manifesting any noticeable cytotoxic effects | – | – | not associated with any noticeable side effects or weight loss | No significant change | statistically significant delay; also recorded: modest (but measurable) delay | no significant effect | marked DNA fragmentation
